Measurements reported in patent US20070054353A1 (published 2007).
Each block holds one binder with its values, some of them ahead of it.

B2: GST-LCoR (other)
chain: MQRMIQQFAAEYTSKNSSTQDPSQPNSTKNQSLPKASPVTTSPTAATTQNPVLSKLLMADQDSPLDLTVRKSQSEPSEQDGVLDLSTKKSPCAGSTSLSHSPGCSSTQGNGRPGRPSQYRPDGLRSGDGVPPRSLQDGTREGFGHSTSLKVPLARSLQISEELLSRNQLSTAASLGPSGLQNHGQHLILSREASWAKPHYEFNLSRMKFRGNGALSNISDLPFLAENSAFPKMALQAKQDGKKDVSHSSPVDLKIPQVRGMDLSWESRTGDQYSYSSLVMGSQTESALSKKLRAILPKQSRKSMLDAGPDSWGSDAEQSTPGQPYPTSDQEGDPGSKQPRKKRGRYRQYNSEILEEAISVVMSGKMSVSKAQSIYGIPHSTLEYKVKERLGTLKNPPKKKMKLMRSEGPDVSVKIELDPQGEAAQSANESKNE
notes: also called GST fused to LCoR; not shown: glutathione S-transferase (GST) tag of vector pGEX2TK

Columns and labels:
ERα-EYFP fusion protein = molecular target: T1, ERα-EYFP fusion protein (UniProt P03372 1-595); assay: BRET in living COS-7 cells
T1 construct: also called EYFP-ERα; not shown: EYFP (engineered fluorescent protein) of vector pEYFP-CMV
T1 sequence (looked up): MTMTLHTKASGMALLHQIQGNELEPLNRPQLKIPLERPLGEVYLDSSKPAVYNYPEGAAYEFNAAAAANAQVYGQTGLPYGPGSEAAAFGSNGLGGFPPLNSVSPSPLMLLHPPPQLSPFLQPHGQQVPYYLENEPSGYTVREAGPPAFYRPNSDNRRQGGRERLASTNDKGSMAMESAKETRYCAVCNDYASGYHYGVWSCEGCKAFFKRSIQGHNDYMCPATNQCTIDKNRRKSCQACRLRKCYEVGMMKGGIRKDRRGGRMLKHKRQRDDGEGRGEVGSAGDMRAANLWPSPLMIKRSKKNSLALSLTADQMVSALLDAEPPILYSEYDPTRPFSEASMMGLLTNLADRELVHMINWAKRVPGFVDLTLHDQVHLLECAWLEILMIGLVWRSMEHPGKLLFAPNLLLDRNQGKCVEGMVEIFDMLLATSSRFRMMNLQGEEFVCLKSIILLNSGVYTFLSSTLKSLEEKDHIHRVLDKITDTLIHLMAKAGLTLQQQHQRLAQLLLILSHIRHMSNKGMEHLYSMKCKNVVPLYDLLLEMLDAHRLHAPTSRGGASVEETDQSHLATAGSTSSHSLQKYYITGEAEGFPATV
Procedure: Cells were washed (2×) with PBS and harvested with 500 μl of PBS-5 mM EDTA. […] Readings were started immediately after coelenterazine H addition, and 10 repeated measures were taken.
BRET ratios were calculated as described in experimental procedures.

HDAC4 = molecular target: T2, HDAC4 (UniProt P56524 1-1084, limits assumed); assay: GST pull-down, in vitro translated HDAC
T2 construct: also called histone deacetylase 4
T2 sequence (P56524 whole entry): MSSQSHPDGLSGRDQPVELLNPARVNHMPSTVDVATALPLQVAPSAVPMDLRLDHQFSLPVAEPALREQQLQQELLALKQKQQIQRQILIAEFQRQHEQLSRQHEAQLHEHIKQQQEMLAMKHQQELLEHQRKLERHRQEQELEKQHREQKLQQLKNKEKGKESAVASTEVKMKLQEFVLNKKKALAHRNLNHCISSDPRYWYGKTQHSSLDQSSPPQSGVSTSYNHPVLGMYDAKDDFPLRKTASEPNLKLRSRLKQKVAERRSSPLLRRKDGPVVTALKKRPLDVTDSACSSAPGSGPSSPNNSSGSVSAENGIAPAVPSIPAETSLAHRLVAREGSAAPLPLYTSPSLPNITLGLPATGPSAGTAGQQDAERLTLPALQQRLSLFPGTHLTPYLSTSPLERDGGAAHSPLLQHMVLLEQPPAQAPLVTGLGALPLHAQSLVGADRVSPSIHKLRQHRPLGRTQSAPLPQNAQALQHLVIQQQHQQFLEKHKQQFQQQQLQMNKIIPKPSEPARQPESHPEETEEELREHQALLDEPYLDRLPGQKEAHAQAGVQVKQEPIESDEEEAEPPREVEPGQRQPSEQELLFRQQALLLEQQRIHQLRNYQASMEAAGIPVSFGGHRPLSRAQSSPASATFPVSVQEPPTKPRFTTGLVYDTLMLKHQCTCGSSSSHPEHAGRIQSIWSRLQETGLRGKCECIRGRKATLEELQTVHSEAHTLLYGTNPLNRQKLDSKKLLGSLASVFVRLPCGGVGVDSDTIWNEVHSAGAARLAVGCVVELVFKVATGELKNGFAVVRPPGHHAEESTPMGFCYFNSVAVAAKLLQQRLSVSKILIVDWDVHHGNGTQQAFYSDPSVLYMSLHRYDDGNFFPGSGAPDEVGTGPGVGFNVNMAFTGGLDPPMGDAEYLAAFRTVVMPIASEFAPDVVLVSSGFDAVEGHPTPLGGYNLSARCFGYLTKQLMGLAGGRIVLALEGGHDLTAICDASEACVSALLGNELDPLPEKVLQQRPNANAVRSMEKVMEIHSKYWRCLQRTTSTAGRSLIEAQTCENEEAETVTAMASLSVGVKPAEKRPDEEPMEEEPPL

HDAC1 = molecular target: T3, HDAC1 (UniProt Q13547 1-482); assay: GST pull-down, in vitro translated HDAC
T3 construct: also called histone deacetylase 1
T3 sequence (Q13547 whole entry): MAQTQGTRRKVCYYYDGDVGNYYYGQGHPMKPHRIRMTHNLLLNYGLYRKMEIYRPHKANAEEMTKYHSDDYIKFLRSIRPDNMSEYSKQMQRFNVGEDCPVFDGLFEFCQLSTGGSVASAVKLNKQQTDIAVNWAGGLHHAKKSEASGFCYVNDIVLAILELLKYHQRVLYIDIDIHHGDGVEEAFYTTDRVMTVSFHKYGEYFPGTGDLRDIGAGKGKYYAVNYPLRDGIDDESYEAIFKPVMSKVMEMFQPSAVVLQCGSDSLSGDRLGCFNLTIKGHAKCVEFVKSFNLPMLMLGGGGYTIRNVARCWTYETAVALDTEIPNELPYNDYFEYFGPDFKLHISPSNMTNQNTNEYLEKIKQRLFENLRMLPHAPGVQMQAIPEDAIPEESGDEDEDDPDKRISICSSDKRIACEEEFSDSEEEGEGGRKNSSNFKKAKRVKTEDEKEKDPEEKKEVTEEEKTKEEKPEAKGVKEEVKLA

[1] = molecular target: CtBP1 (C-terminal binding protein 1) (human, UniProt Q13363 1-440); assay: coimmunoprecipitation with anti-CtBP antibody from transfected MCF-7 cells
Procedure: For immunoprecipitation of endogenous CtBP, CtIP, Rb, or Bmi1, MCF-7 cells in 150 mm dishes were lysed 3 min at 4° C. in 1 ml of LB (150 mM NaCl/10 mM Tris-HCl pH 7.4/0.2 mM Na orthovanadate/1 mM EDTA/1 mM EGTA/1% Triton-100X/0.5% IGEPAL CA-630/protease inhibitor cocktail; Boehringer-Mannheim, Laval, Qc). Cell debris were pelleted by centrifugation (14,000 rpm, 5 min), and proteins immunoprecipitated with 4 μg of αCtBP or αCtIP or αRb or polyclonal rabbit αBMI1 or control rabbit or goat IgG at 4° C. overnight followed by 2 hours incubation at 4° C. with protein A agarose (for αCtBP, αBmi1, control rabbit IgG) or protein A+G agarose (for αCtIP or αRb or control goat IgG). Beads were washed (3×) with LB. […] For immunoprecipitation of tagged proteins, transfected MCF-7 cells were lysed 30 min at 4° C. in 1 ml of LB, 48 h after transfection. Supernatants were cleared, incubated overnight with 4 μg of aCtBP or α-Flag M2 antibody followed by 2 hours incubation with protein-A agarose or protein A+G agarose beads respectively. Beads were washed (3×) with LB and Western blotted as above. Dilutions of specific antibodies used for Western blotting were: α-CtBP1 , α-CtBP2 (1:100), α-Flag M2-peroxidase (1:100).

GST-TIF2.1 = molecular target: T4, GST-TIF2.1 (UniProt Q15596 624-1287); assay: GST pull-down, in vitro translated ER378
T4 construct: also called GST fused to TIF2.1; not shown: glutathione S-transferase (GST) tag of vector pGEX2T
T4 sequence (looked up): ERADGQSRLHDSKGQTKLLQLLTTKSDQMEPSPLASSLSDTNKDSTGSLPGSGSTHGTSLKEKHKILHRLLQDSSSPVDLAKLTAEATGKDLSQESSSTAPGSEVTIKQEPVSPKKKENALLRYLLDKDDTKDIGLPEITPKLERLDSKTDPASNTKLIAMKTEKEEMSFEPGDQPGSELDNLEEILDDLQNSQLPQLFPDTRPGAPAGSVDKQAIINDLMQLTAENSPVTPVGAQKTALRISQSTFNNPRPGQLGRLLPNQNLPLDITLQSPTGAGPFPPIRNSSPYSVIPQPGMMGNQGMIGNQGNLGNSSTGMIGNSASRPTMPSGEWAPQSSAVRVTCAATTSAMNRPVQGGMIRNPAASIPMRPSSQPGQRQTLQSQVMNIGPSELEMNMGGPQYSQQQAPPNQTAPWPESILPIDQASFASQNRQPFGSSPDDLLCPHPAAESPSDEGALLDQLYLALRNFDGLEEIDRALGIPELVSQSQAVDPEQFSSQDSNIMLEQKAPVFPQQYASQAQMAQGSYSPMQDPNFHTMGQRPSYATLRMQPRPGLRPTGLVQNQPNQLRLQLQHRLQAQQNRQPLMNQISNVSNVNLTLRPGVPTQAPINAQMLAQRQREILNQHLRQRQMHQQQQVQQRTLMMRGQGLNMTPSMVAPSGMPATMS

GST-LCoR = molecular target: B2; assay: GST pull-down

Binder: B2
binding result (HDAC4): no binding | binding result (HDAC1): no binding

B3: GST-LSKAA (other)
chain: MQRMIQQFAAEYTSKNSSTQDPSQPNSTKNQSLPKASPVTTSPTAATTQNPVLSKAAMADQDSPLDLTVRKSQSEPSEQDGVLDLSTKKSPCAGSTSLSHSPGCSSTQGNGRPGRPSQYRPDGLRSGDGVPPRSLQDGTREGFGHSTSLKVPLARSLQISEELLSRNQLSTAASLGPSGLQNHGQHLILSREASWAKPHYEFNLSRMKFRGNGALSNISDLPFLAENSAFPKMALQAKQDGKKDVSHSSPVDLKIPQVRGMDLSWESRTGDQYSYSSLVMGSQTESALSKKLRAILPKQSRKSMLDAGPDSWGSDAEQSTPGQPYPTSDQEGDPGSKQPRKKRGRYRQYNSEILEEAISVVMSGKMSVSKAQSIYGIPHSTLEYKVKERLGTLKNPPKKKMKLMRSEGPDVSVKIELDPQGEAAQSANESKNE
notes: Positions 56 and 57 are counted from the printed motif start (53); also called GST-LCoR-LSKAA; GST fused to LCoR-LSKAA; not shown: glutathione S-transferase (GST) tag of vector pGEX2TK
binding result (HDAC4): no binding | binding result (HDAC1): no binding

B4: Flag-m1+2 (Flag-tagged LCoR mutated in both CtBP binding sites) (other, not shown: small tags and cut ends)
chain: MQRMIQQFAAEYTSKNSSTQDPSQPNSTKNQSLPKASPVTTSPTAATTQNPVLSKLLMADQDSKSQSEPSEQDGKSPCAGSTSLSHSPGCSSTQGNGRPGRPSQYRPDGLRSGDGVPPRSLQDGTREGFGHSTSLKVPLARSLQISEELLSRNQLSTAASLGPSGLQNHGQHLILSREASWAKPHYEFNLSRMKFRGNGALSNISDLPFLAENSAFPKMALQAKQDGKKDVSHSSPVDLKIPQVRGMDLSWESRTGDQYSYSSLVMGSQTESALSKKLRAILPKQSRKSMLDAGPDSWGSDAEQSTPGQPYPTSDQEGDPGSKQPRKKRGRYRQYNSEILEEAISVVMSGKMSVSKAQSIYGIPHSTLEYKVKERLGTLKNPPKKKMKLMRSEGPDVSVKIELDPQGEAAQSANESKNE
notes: also called LCoR derivative (m1+2)
binding result [1]: no binding

B5: ER378 (receptor, UniProt P03372 1-378, looked up)
chain: MTMTLHTKASGMALLHQIQGNELEPLNRPQLKIPLERPLGEVYLDSSKPAVYNYPEGAAYEFNAAAAANAQVYGQTGLPYGPGSEAAAFGSNGLGGFPPLNSVSPSPLMLLHPPPQLSPFLQPHGQQVPYYLENEPSGYTVREAGPPAFYRPNSDNRRQGGRERLASTNDKGSMAMESAKETRYCAVCNDYASGYHYGVWSCEGCKAFFKRSIQGHNDYMCPATNQCTIDKNRRKSCQACRLRKCYEVGMMKGGIRKDRRGGRMLKHKRQRDDGEGRGEVGSAGDMRAANLWPSPLMIKRSKKNSLALSLTADQMVSALLDAEPPILYSEYDPTRPFSEASMMGLLTNLADRELVHMINWAKRVPGFVDLTLHDQVHL
notes: In vitro translated
binding result (GST-TIF2.1): no binding

Next, values leading:

fold reduction of hormone-independent interaction against wild-type LCoR (ERα-EYFP fusion protein): ~2 fold
B1: LCoR-LSKAA-rluc fusion protein (other)
chain: MQRMIQQFAAEYTSKNSSTQDPSQPNSTKNQSLPKASPVTTSPTAATTQNPVLSKAAMADQDSPLDLTVRKSQSEPSEQDGVLDLSTKKSPCAGSTSLSHSPGCSSTQGNGRPGRPSQYRPDGLRSGDGVPPRSLQDGTREGFGHSTSLKVPLARSLQISEELLSRNQLSTAASLGPSGLQNHGQHLILSREASWAKPHYEFNLSRMKFRGNGALSNISDLPFLAENSAFPKMALQAKQDGKKDVSHSSPVDLKIPQVRGMDLSWESRTGDQYSYSSLVMGSQTESALSKKLRAILPKQSRKSMLDAGPDSWGSDAEQSTPGQPYPTSDQEGDPGSKQPRKKRGRYRQYNSEILEEAISVVMSGKMSVSKAQSIYGIPHSTLEYKVKERLGTLKNPPKKKMKLMRSEGPDVSVKIELDPQGEAAQSANESKNE
notes: also called rluc-LCoR-LSKAA; not shown: Renilla luciferase (rluc) of vector pRL-CMV

binding result (GST-LCoR): no binding
B6: HE15 (receptor, UniProt P03372 1-282, looked up)
chain: MTMTLHTKASGMALLHQIQGNELEPLNRPQLKIPLERPLGEVYLDSSKPAVYNYPEGAAYEFNAAAAANAQVYGQTGLPYGPGSEAAAFGSNGLGGFPPLNSVSPSPLMLLHPPPQLSPFLQPHGQQVPYYLENEPSGYTVREAGPPAFYRPNSDNRRQGGRERLASTNDKGSMAMESAKETRYCAVCNDYASGYHYGVWSCEGCKAFFKRSIQGHNDYMCPATNQCTIDKNRRKSCQACRLRKCYEVGMMKGGIRKDRRGGRMLKHKRQRDDGEGRGEVGS
notes: range 1-282; also called ERα truncated to amino acid 282 in region D

binding result (GST-LCoR): no binding
B7: ERα A/B domain (receptor, UniProt P03372 1-180, looked up)
chain: MTMTLHTKASGMALLHQIQGNELEPLNRPQLKIPLERPLGEVYLDSSKPAVYNYPEGAAYEFNAAAAANAQVYGQTGLPYGPGSEAAAFGSNGLGGFPPLNSVSPSPLMLLHPPPQLSPFLQPHGQQVPYYLENEPSGYTVREAGPPAFYRPNSDNRRQGGRERLASTNDKGSMAMESAK
notes: range 1-180; also called ERα truncated to amino acid 180
